Results taken from US20030219839A1 (published 2003).

Columns and labels:
[1] = molecular target: T1, recombinant human platelet derived growth factor (PDGF-BB) (human, UniProt P01127 82-190); assay: BIAcore SPR, cytokine immobilised via primary amines, antibody as analyte
T1 construct: also called human PDGF-BB; PDGF-BB cytokine
Description: BIAcore analysis of the original and humanized anti-PDGF clones was performed according to standard procedures. The cytokine was immobilized on the BIAchip by chemical linking via primary amines and the binding behavior of the antibodies was analyzed over 30 min.

rat PDGF BB = rat PDGF BB (rat, UniProt Q05028 74-182); assay: solid phase ELISA: plate coated with the named form of PDGF, serial dilutions of mouse C1 Fab (axis in dilutions 1/x, no mass unit), OD
[2] = molecular target: T1, recombinant human platelet derived …; assay: competition ELISA: antibody pre-incubated with 10 ng/ml PDGF-BB, then added to a plate coated with PDGF receptor beta/Fc; receptor-bound PDGF-BB detected by biotinylated anti-PDGF-BB antibody and streptavidin-alkaline phosphatase, OD405; blocked partner: PDGF receptor beta/Fc
Description: The ability of the rabbit scFvs to compete with the PDGF-1 receptor for binding to the PDGF-BB cytokine was determined in a competition assay. Binding of the scFvs to their target epitope on the PDGF-BB cytokine prevents PDGF-BB binding to the PDGF receptor coated on the plates. High protein binding 96-well plates were coated with 10 ng/well of recombinant human PDGF receptor beta/Fc chimera (R&D Systems, MN) in PBS overnight at 4° C. The plates were blocked with 5% sucrose/1% BSA/PBS for 1 h at 37° C. Serial dilutions of purified anti-PDGF-BB antibody were incubated with 10 ng/ml of recombinant human PDGF-BB at room temperature for 30 minutes before being added to the blocked and washed plates. After 2 h at room temperature, the plates were washed with PBS/0.05% Tween followed by another 2-hour incubation with biotinylated anti-PDGF-BB antibody (R&D Systems, MN) at room temperature. Next, streptavidin-alkaline phosphatase (Pierce, Rockford, Ill.) was added to the plates and incubated for 30 minutes at room temperature. The plates were washed 3×with PBS/0.05% Tween and 3× with PBS. Sigma 104 substrate suspended in PNPP buffer was added after the final wash step and the signal at OD405 was determined. […] F3 was then selected for humanization.

T1 sequence (P01127 82-190): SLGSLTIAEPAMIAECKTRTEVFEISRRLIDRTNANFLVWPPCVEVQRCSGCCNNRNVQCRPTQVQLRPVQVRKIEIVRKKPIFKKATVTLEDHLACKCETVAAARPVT
Sequence of rat PDGF BB (Q05028 74-182): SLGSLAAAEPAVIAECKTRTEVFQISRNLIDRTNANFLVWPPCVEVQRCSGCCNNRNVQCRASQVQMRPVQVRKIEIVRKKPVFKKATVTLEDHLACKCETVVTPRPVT

B1: C1 mouse anti-PDGF Fab (Fab, V domains shown)
VH: QVLLEQSGSELVRPGASVKLSCKASGYTFTSTWMNWVKKRPDQGLEWIGRIDPYDSETHYNQKFKDKAILTVDKSSSTAYMQLSRLTSEDSAVYYCARGGHMITPAMDYWGQGTSVTVSS
VL: VQVLTQSPAIMSASPGEKVTITCTASSSVSYMHWFQQKPGTSPKLLIYSASNLASGVPARFSGSGSGTSYSLTISRMEAEDAATYYCQQRSSYPWTFGGGTKLEIKR
notes: Mouse light chain and heavy chain Fd cloned in phagemid pRL4; purified over a Ni column; detected by an HA tag; also called mouse C1; murine antibody C1
With B1 the Ka [1] was 2.31e+09 M⁻¹, the Kd [1] was 0.433 nM and the koff [1] was 4.62e-05 s⁻¹. The kon [1] was 107000 M⁻¹ s⁻¹, the binding result (rat PDGF BB) was “no binding” and the “IC50 (read off the curve)” value [2] was ~0.4 µg/mL.
